Test: soluble on expression in E. coli; label from the status in PepcDB or PDB records

Question: For “MGSDKIHHHHHHAVTSCLDTEEIEYSPDATIHAFALDTIHGVNYKFTIDQLGPDGVGLIYNQDSLPVGSDTIIDRILIKTLTTTSGIITAKNAEGQDTLFNYSDSIDFRGTMQKPMRIKVWAADMQYTKEYTISVRVHQQDPDSMNWTKMTDNFANYSGYQKSVTLNEDLLIYTSNTTAYQSSGDVISKGRSWTPVSITGLPDNIKLSSIISFGGKLYATNGESAYVSSDGALWNVATDLNKNGKVEMLIAPFPKNEGNLLGISGIAGIINNGDQSTFAITNPEATAWNIGSETVGADFPLENLSATSYLTATGIQTIAVMGNNRNANDTTSIAWTSQDGLLWIPLKTSSSTAYCPKLDNPSFFYYDNAFLAFGGNFETIYTSEAGIAWYKANKKIFLPAEFKDRGNNYSTVVDKNNFIWVIWSNGGANEVWRGRINKFGFKRQNNN”, which “soluble on expression in E. coli” value is on record?
Answer: not soluble

Question: With “MAQLYFYYSAMNAGKSTSLLQSSYNYRERGMNTLVMTASIDDRYGKGKVASRIGIESDAQVFSSHDNLIEMITAAHQENHLSCVLVDECQFLSKEQVKQLTYIVDKIDIPVLCYGLRTDFQGELFSGSHYLLAWADKLVELKTICHCGRKANMVVRLDGEGKVMREGEQVAIGGNESYESVCRKHFREFIWD” as the sequence, how does the “soluble on expression in E. coli” value read?
Answer: soluble

Question: With “MSLQLSNFLELERADTFENVERVQNAVATEQSYLDYIVQDWACWDDTYQFIEDKNPEYIRVDLQNQTLSGINVNVMIFVNNSGKVVYVKSVNTSTAEEAPVPRKLLAMIEDGGLLTEGENDSISGFVLLDEDPMFIACHPILTTKYEGPSRGTLIFGRYFDDALLESFKKVTRSSLLMYRADEEMPQDFQNKIKNFSQNSDNIVVDPLNKNQIAGYFGLKDIKGDIALILRADFPREGHHHHHH” as the sequence, how does the “soluble on expression in E. coli” value read?
Answer: soluble

Question: With “MKFDTIINQPVIETERFDLRPLRKSDMGLIEHYARDERVARMTTSIPHPLPPGMAEGFVARAMSEERTEDVWAMDATRDGGPELMGLISLERMDRNQSEVGYWVAPVFWNTGIASMAVEALVNANPLGNATMFASVFQDNPASARVLTHCGFQYLGDAESYSVARDAAVPTWTYSRKL” as the sequence, how does the “soluble on expression in E. coli” value read?
Answer: not soluble

Question: Which “soluble on expression in E. coli” value does the source give for “MSTLAPLFLAKHPDGEERQVIRPNVWETSCADTETLSIFHIEGMADPDLLCRVLNLFAVQSFTPERVRADREDHKIRLLLTFPGLSQHRASVIAEKLRSLVTVLAVRLEFSPHAGKVRPSVSEPLLASVV” here?
Answer: not soluble

Question: Which “soluble on expression in E. coli” value does the source give for “MIEIKHLKTLQALRNSGSLAAAAAVLHQTQSALSHQFSDLEQRLGFRLFVRKSQPLRFTPQGEVLLQLANQVLPQISRALQACNEPQQTRLRIAIECHSCIQWLTPALENFRASWPQVEMDFTSGVTFDPQPALQQGELDLVMTSDILPRSGLHYSPMFDFEVRLVLAPDHPLASKTQITPEDLASETLLIYPVQRSRLDVWRHFLQPAGISPLLKSVDNTLLLIQMVAARMGIAALPHWVVESVERQGLVVTKTLGDGLWSRLYAAVRDGDQRQAVTEAFIRSTRDHACDHLPFVRSAERPIFDAPTAKPGSQPRL” here?
Answer: not soluble

Question: For “SNAMTSLEEITKAIMADSQNKVFTEKNIEPLFAAPKTARINIVGQAPGIKAQESRLYWNDKSGDRLREWMGVDYDTFYHSGYFAVIPMDFYYPGKGKSGDLPPRKGFAQKWHQPILDLLPDIQLTILIGNYAQKYYLHQKSSVKLTDTVAHYKKYLPDYFPLVHPSPRNQIWMSRHPWFEAQVVPDLKKIIQQIIQSS”, which “soluble on expression in E. coli” value is on record?
Answer: soluble

Question: Which “soluble on expression in E. coli” value does the source give for “RHYPEVKKLVLLSTAVNAMEWPQIIENSKQVITEAKEVTLKNSPMFKRYQKKVTETPWTSTLQFKKMVALAKPVFEHIEIPTFIAQGSADPIVPAEKSVNFLMESIPGPKELFILEGSKHVICQDEQADKLFAAVLTFLQK” here?
Answer: not soluble

Question: With “MSLTVNISYLTDMDGVLIKEGEIIPGADRFLQSLTDNNVEFMVLTNNSIFTPRDLSARLKTSGLEIPPERIWTSATATAHFLKSQVKEGTAYVVGESGLTTALHTAGWILTDANPEFVVLGETRTYSFEAITTAINLILGGARFICTNPDVTGPSPSGILPATGSVAALITAATGAEPYYIGKPNPVMMRSALNTIGAHSEHTVMIGDRMDTDVKSGLEAGLSTVLVRSGISDDAEIRRYPFRPTHVINSIADLADEGHHHHHH” as the sequence, how does the “soluble on expression in E. coli” value read?
Answer: soluble

Question: With “MATFEEVSVLGFEEFDKAVKEHESKTIFAYFSGSKDTEGKSWCPDCVEAEPVIREGLKHVTEDCVFIYCQVGDKPYWKDPNNDFRQKLKITAVPTLLKYGTPQKLVESECCQSSLVEMIFSED” as the sequence, how does the “soluble on expression in E. coli” value read?
Answer: soluble

Reference: the DeepSol protein solubility set
